According to patent publication US20260242478A1 (published 2026):
Where no end group is shown, it is not given here.

B1: Phage-1979 (peptide)
peptide: LPKWCTPEWMCIGF
notes: tested as crude clonal phage supernatant
B2: Phage-1977 (peptide)
peptide: MAQWCTPAWMCSGF
notes: as for B1
B3: Phage-1970 (peptide)
peptide: EFKWCTPSWMCAHL
notes: as for B1
B4: Phage-1974 (peptide)
peptide: LVKWCIPEWMCEVL
notes: as for B1
B5: Phage-1966 (peptide)
peptide: WDKWCRPAWMCEST
notes: as for B1
B6: Phage-1973 (peptide)
peptide: FDKWCIPEWMCAVL
notes: as for B1
B7: Phage-2006 (peptide)
peptide: LPHWCTPLWMCEGF
modifications: cysteine pairing not given here; also: fused to phage pIII, pIII sequence and linker not given here
notes: Peptide-180 library clone
B8: Phage-2009 (peptide)
peptide: EFVKCVPAWMCEWT
modifications: cysteine pairing not given here; also: fused to phage pIII, pIII sequence and linker not given here
notes: Peptide-180 library clone
B9: Phage-1968 (peptide)
peptide: YIKWCTPSWMCEAS
notes: as for B1
B10: Phage-2005 (peptide)
peptide: VTKWCIPEWMCEYI
modifications: cysteine pairing not given here; also: fused to phage pIII, pIII sequence and linker not given here
notes: Peptide-180 library clone
B11: Phage-1980 (peptide)
peptide: LDKWCIPPWMCYSI
notes: as for B1
B12: Phage-1969 (peptide)
peptide: VEKWCKPTWMCEMV
notes: as for B1
B13: Phage-1971 (peptide)
peptide: VMNWCTPVWMCQGF
notes: as for B1
B14: Phage-1975 (peptide)
peptide: FDNWCKPSWMCAGL
notes: as for B1
B15: Phage-2008 (peptide)
peptide: HPKWCTPAWMCVML
modifications: cysteine pairing not given here; also: fused to phage pIII, pIII sequence and linker not given here
notes: Peptide-180 library clone
B16: Phage-1972 (peptide)
peptide: PWHWCIPEWMCAEY
notes: as for B1
B17: Phage-2007 (peptide)
peptide: QDMWCIPPWMCWAQ
modifications: cysteine pairing not given here; also: fused to phage pIII, pIII sequence and linker not given here
notes: Peptide-180 library clone
B18: Phage-1978 (peptide)
peptide: SERWCIPTWMCQET
notes: as for B1
B19: Phage-1967 (peptide)
peptide: DVKMCIPAWMCSFD
notes: as for B1
B20: Phage-1976 (peptide)
peptide: TMHWCIPQWMCETG
notes: as for B1

Legend:
[1] = molecular target: T1, Anti-PSMA Fab (SEQ ID NOs: 19, 20); assay: phage ELISA; biotinylated PSMA Fab on neutravidin plate, clonal phage supernatant, anti-M13 HRP detection;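 further: wells preincubated with PSMA antigen in blocking buffer or with blocking buffer only before clonal phage were added for a short incubation, then bound phage detected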
T1 construct: In the phage ELISA the Fab was biotinylated and captured on neutravidin coated plates; also called 006 PSMA Fab
Experimental: (§1) Clonal phage were harvested as crude supernatants and screened via standard ELISAs. […] Prior to the addition of clonal phage. wells were incubated with blocking buffer and PSMA antigen or blocking buffer alone. Without washing or aspirating, clonal phage supernatants were then added to the wells and incubated for a short time. Wells were then washed followed by detection of bound phage using a horse radish conjugated anti-M13 antibody.

[2] = molecular target: T1, Anti-PSMA Fab (SEQ ID NOs: 19, 20); assay: phage ELISA; biotinylated PSMA Fab on neutravidin plate pre-incubated with PSMA antigen (competitor), anti-M13 HRP detection
Experimental: as §1

[3] = molecular target: T2, Anti-PSMA Fab (SEQ ID NOs: 19, 20); assay: phage binding ELISA on captured PSMA Fab; wells pre-incubated with PSMA antigen as competitor
T2 construct: Biotinylated and captured on neutravidin coated plates in the phage ELISA; also called 006 PSMA Fab
Experimental: as §1

[4] = molecular target: T2, Anti-PSMA Fab (SEQ ID NOs: 19, 20); assay: phage binding ELISA; biotinylated PSMA Fab captured on neutravidin plate, clonal phage supernatant, anti-M13 HRP detection
Experimental: as §1

[5] = molecular target: T3, Anti-PSMA Fab (SEQ ID NOs: 19, 20); assay: phage binding ELISA; biotinylated PSMA Fab on neutravidin plate, clonal phage supernatant, anti-M13 HRP detection;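 further: wells were preincubated with blocking buffer either containing PSMA antigen or without it before crude phage supernatant was added, briefly incubated, then washed prior to detection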
T3 construct: Biotinylated and captured on neutravidin coated plates in the phage ELISA; also called 006 PSMA Fab
Experimental: as §1

[6] = molecular target: T3, Anti-PSMA Fab (SEQ ID NOs: 19, 20); assay: phage binding ELISA; PSMA Fab on plate pre-incubated with PSMA antigen as competitor, anti-M13 HRP detection;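 further: crude clonal phage supernatants added without washing to wells preincubated with PSMA in blocking buffer, compared with wells receiving blocking buffer only, then bound phage detected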
Experimental: as §1

| Binder | Phage binding ELISA, Anti-PSMA Fab signal [1] | Phage binding ELISA, Anti-PSMA Fab signal in the presence of PSMA [2] | Anti-PSMA Fab signal in the presence of PSMA [3] | Anti-PSMA Fab (SEQ ID NOs: 19, 20) signal [4] | also measured |
| --- | --- | --- | --- | --- | --- |
| EVKWCTPAWMCEGF (cysteine pairing not given here; also: displayed as fusion to phage pIII, Peptide-180 library clone) [Phage-2001] | 1.85 | 0.0605 | – | – | – |
| B1 | – | – | 0.113 | 1.89 | – |
| B2 | – | – | 0.0721 | 1.89 | – |
| B3 | – | – | 0.128 | 1.9 | – |
| IDNWCRPLWMCHGF (cysteine pairing not given here; also: displayed as fusion to phage pIII, Peptide-180 library clone) [Phage-2004] | 1.85 | 0.0907 | – | – | – |
| WDKWCIPEWMCESM [Phage-1959] | – | – | – | – | Phage binding ELISA, Anti-PSMA Fab (SEQ ID NOs: 19, 20) signal [5]: 1.92; Phage binding ELISA, Anti-PSMA Fab signal in the presence of PSMA [6]: 0.0718 |
| B4 | – | – | 0.0751 | 1.9 | – |
| B5 | – | – | 0.0851 | 1.91 | – |
| EGIWCTPAWMCMGF [Phage-1961] | – | – | – | – | Phage binding ELISA, Anti-PSMA Fab (SEQ ID NOs: 19, 20) signal [5]: 1.91; Phage binding ELISA, Anti-PSMA Fab signal in the presence of PSMA [6]: 0.0798 |
| B6 | – | – | 0.0682 | 1.9 | – |
| B7 | 1.85 | 0.0658 | – | – | – |
| B8 | 1.84 | 0.0768 | – | – | – |
| B9 | – | – | 0.113 | 1.9 | – |
| B10 | 1.85 | 0.0658 | – | – | – |
| DGKWCIPAWMCVDM [Phage-1958] | – | – | – | – | Phage binding ELISA, Anti-PSMA Fab (SEQ ID NOs: 19, 20) signal [5]: 1.92; Phage binding ELISA, Anti-PSMA Fab signal in the presence of PSMA [6]: 0.0672 |
| IPKWCTPAWMCESM (cysteine pairing not given here; also: displayed as fusion to phage pIII, Peptide-180 library clone) [Phage-1999] | 1.86 | 0.0609 | – | – | – |
| B11 | – | – | 0.0602 | 1.89 | – |
| B12 | – | – | 0.0976 | 1.9 | – |
| LENWCIPAWMCSGF [Phage-1957] | – | – | – | – | Phage binding ELISA, Anti-PSMA Fab (SEQ ID NOs: 19, 20) signal [5]: 1.92; Phage binding ELISA, Anti-PSMA Fab signal in the presence of PSMA [6]: 0.0656 |

| Binder | Phage binding ELISA, Anti-PSMA Fab signal [1] | Phage binding ELISA, Anti-PSMA Fab signal in the presence of PSMA [2] | Anti-PSMA Fab signal in the presence of PSMA [3] | Anti-PSMA Fab (SEQ ID NOs: 19, 20) signal [4] | also measured |
| --- | --- | --- | --- | --- | --- |
| HEMWCRPAWMCDGF (cysteine pairing not given here; also: displayed as fusion to phage pIII, Peptide-180 library clone) [Phage-2000] | 1.85 | 0.0635 | – | – | – |
| VVKWCLPPWMCTDF [Phage-1962] | – | – | – | – | Phage binding ELISA, Anti-PSMA Fab (SEQ ID NOs: 19, 20) signal [5]: 1.91; Phage binding ELISA, Anti-PSMA Fab signal in the presence of PSMA [6]: 0.0829 |
| B13 | – | – | 0.115 | 1.9 | – |
| LVKWCTPAWMCEFI [Phage-1963] | – | – | – | – | Phage binding ELISA, Anti-PSMA Fab (SEQ ID NOs: 19, 20) signal [5]: 1.91; Phage binding ELISA, Anti-PSMA Fab signal in the presence of PSMA [6]: 0.0856 |
| B14 | – | – | 0.0863 | 1.89 | – |
| FEKWCVPIWMCRDS (cysteine pairing not given here; also: displayed as fusion to phage pIII, Peptide-180 library clone) [Phage-2003] | 1.85 | 0.161 | – | – | – |
| B15 | 1.85 | 0.0691 | – | – | – |
| FAKWCTPVWMCAGL (cysteine pairing not given here; also: displayed as fusion to phage pIII) [Phage-1956] | – | – | – | – | Phage binding ELISA, Anti-PSMA Fab (SEQ ID NOs: 19, 20) signal [5]: 1.92; Phage binding ELISA, Anti-PSMA Fab signal in the presence of PSMA [6]: 0.281 |
| LEMWCVPAWMCSGF [Phage-1964] | – | – | – | – | Phage binding ELISA, Anti-PSMA Fab (SEQ ID NOs: 19, 20) signal [5]: 1.91; Phage binding ELISA, Anti-PSMA Fab signal in the presence of PSMA [6]: 0.0771 |
| FEKWCIPDWMCQVM [Phage-1960] | – | – | – | – | Phage binding ELISA, Anti-PSMA Fab (SEQ ID NOs: 19, 20) signal [5]: 1.91; Phage binding ELISA, Anti-PSMA Fab signal in the presence of PSMA [6]: 0.0817 |
| B16 | – | – | 0.083 | 1.9 | – |
| B17 | 1.85 | 0.126 | – | – | – |
| IDKWCIPAWMCVSN (cysteine pairing not given here; also: displayed as fusion to phage pIII, Peptide-180 library clone) [Phage-1998] | 1.86 | 0.0815 | – | – | – |
| B18 | – | – | 0.0819 | 1.89 | – |
| LEKLCIPSWMCEGM (cysteine pairing not given here; also: displayed as fusion to phage pIII, Peptide-180 library clone) [Phage-2002] | 1.85 | 0.0942 | – | – | – |
| NFHLCTPQWMCTGF (cysteine pairing not given here; also: displayed as fusion to phage pIII, Peptide-180 library clone) [Phage-1997] | 1.86 | 0.0973 | – | – | – |
| MVKWCKPAWMCDVI [Phage-1965] | – | – | – | – | Phage binding ELISA, Anti-PSMA Fab (SEQ ID NOs: 19, 20) signal [5]: 1.91; Phage binding ELISA, Anti-PSMA Fab signal in the presence of PSMA [6]: 0.078 |
| B19 | – | – | 0.0712 | 1.91 | – |
| B20 | – | – | 0.25 | 1.89 | – |
